Results as given in patent US9637764B2, “Methods of producing 7-carbon chemicals via carbon chain elongation associated with cyclohexane carboxylate synthesis” (INVISTA North America S.á r.l., priority 2012, dated 2017).

Assay: Carboxylate reductase activity assay, N7-acetyl-7-aminoheptanoate to N7-acetyl-7-aminoheptanal (NADPH consumption, absorbance at 340 nm)
Format: biochemical
Details: purified enzyme enhanced by the gene product of sfp, 2 mM N7-acetyl-7-aminoheptanoate, 1 mM ATP, 1 mM NADPH, pH=7.5, room temperature, 20 min; against the empty vector control; FIG. 12
Description: The activity of each of the N-terminal His-tagged carboxylate reductases of SEQ ID NOs: 3, 6, and 7 (see Examples 4, and FIGS. 7B, 7E, and 7F) for converting N7-acetyl-7-aminoheptanoate to N7-acetyl-7-aminoheptanal was assayed in triplicate in a buffer composed of a final concentration of 50 mM HEPES buffer (pH=7.5), 2 mM N7-acetyl-7-aminoheptanoate, 10 mM MgCl2, 1 mM ATP, and 1 mM NADPH. The assays were initiated by adding purified carboxylate reductase and phosphopantetheine transferase or the empty vector control to the assay buffer containing the N7-acetyl-7-aminoheptanoate then incubated at room temperature for 20 min. The consumption of NADPH was monitored by absorbance at 340 nm.

B1: SEQ ID NO 6: Mycobacterium massiliense carboxylate reductase, Genbank Accession No. EIV11143.1 (protein)
chain: MTNETNPQQEQLSRRIESLRESDPQFRAAQPDPAVAEQVLRPGLHLSEAIAALMTGYAERPALGERARELVIDQDGRTTLRLLPRFDTTTYGELWSRTTSVAAAWHHDATHPVKAGDLVATLGFTSIDYTVLDLAIMILGGVAVPLQTSAPASQWTTILAEAEPNTLAVSIELIGAAMESVRATPSIKQVVVFDYTPEVDDQREAFEAASTQLAGTGIALETLDAVIARGAALPAAPLYAPSAGDDPLALLIYTSGSTGAPKGAMHSENIVRRWWIREDVMAGTENLPMIGLNFMPMSHIMGRGTLTSTLSTGGTGYFAASSDMSTLFEDMELIRPTALALVPRVCDMVFQRFQTEVDRRLASGDTASAEAVAAEVKADIRDNLFGGRVSAVMVGSAPLSEELGEFIESCFELNLTDGYGSTEAGMVFRDGIVQRPPVIDYKLVDVPELGYFSTDKPHPRGELLLKTDGMFLGYYKRPEVTASVFDADGFYMTGDIVAELAHDNIEIIDRRNNVLKLSQGEFVAVATLEAEYANSPVVHQIYVYGSSERSYLLAVVVPTPEAVAAAKGDAAALKTTIADSLQDIAKEIQLQSYEVPRDFIIEPQPFTQGNGLLTGIAKLARPNLKAHYGPRLEQMYAEIAEQQAAELRALHGVDPDKPALETVLKAAQALLGVSSAELAADAHFTDLGGDSLSALSFSDLLRDIFAVEVPVGVIVSAANDLGGVAKFVDEQRHSGGTRPTAETVHGAGHTEIRAADLTLDKFIDEATLHAAPSLPKAAGIPHTVLLTGSNGYLGHYLALEWLERLDKTDGKLIVIVRGKNAEAAYGRLEEAFDTGDTELLAHFRSLADKHLEVLAGDIGDPNLGLDADTWQRLADTVDVIVHPAALVNHVLPYNQLFGPNVVGTAEIIKLAITTKIKPVTYLSTVAVAAYVDPTTFDEESDIRLISAVRPIDDGYANGYGNAKWAGEVLLREAHDLCGLPVAVFRSDMILAHSRYTGQLNVPDQFTRLILSLIATGIAPGSFYQAQTTGERPLAHYDGLPGDFTAEAITTLGTQVPEGSEGFVTYDCVNPHADGISLDNFVDWLIEAGYPIARIDNYTEWFTRFDTAIRGLSEKQKQHSLLPLLHAFEQPSAAENHGVVPAKRFQHAVQAAGIGPVGQDGTTDIPHLSRRLIVKYAKDLEQLGLL
modifications: Mycobacterium massiliense
**Q.** Which “carboxylate reductase activity for converting N7-acetyl-7-aminoheptanoate to N7-acetyl-7-aminoheptanal” value does the source give for B1 here?
**A.** accepted N7-acetyl-7-aminoheptanoate as substrate
